{"source": "paper PMC4770091", "about": "“Structural hot spots for the solubility of globular proteins” (Nature Communications, 2016)", "target": "the molecule itself", "experiment": "SEC; lysate of transfected HeLa cells (RIPA buffer) on Superdex S200 HR10/30 in hypotonic buffer (20 mM HEPES, 10 mM KCl, 1 mM MgCl2, 1 mM EDTA, 1 mM EGTA, 1 mM DTT, pH 7.5); fractions precipitated with trichloroacetic acid and blotted with anti-myc; molecular weight markers as standard"}
{"protein": "human α-galactosidase (α-Gal A), wild type (enzyme, UniProt P06280 32-429, looked up, human α-galactosidase A, full-length cDNA NM_000169 cloned in pcDNA4/TO/myc-His; The vector pcDNA4/TO/myc-His may also add a His tag after the Myc tag; also called WT α-Gal; Agal; source: HeLa, transiently transfected, in lysate (RIPA buffer); not shown: Myc, C-terminal, kept) LDNGLARTPTMGWLHWERFMCNLDCQEEPDSCISEKLFMEMAELMVSEGWKDAGYEYLCIDDCWMAPQRDSEGRLQADPQRFPHGIRQLANYVHSKGLKLGIYADVGNKTCAGFPGSFGYYDIDAQTFADWGVDLLKFDGCYCDSLENLADGYKHMSLALNRTGRSIVYSCEWPLYMWPFQKPNYTEIRQYCNHWRNFADIDDSWKSIKSILDWTSFNQERIVDVAGPGGWNDPDMLVIGNFGLSWNQQVTQMALWAIMAAPLFMSNDLRHISPQAKALLQDKDVIAINQDPLGKQGYQLRQGDNFEVWERPLSGLAWAVAMINRQEIGGPRSYTIAVASLGKGVACNPACFITQLLPVKRKLGFYEWTSRLRSHINPTGTVLLQLENTMQMSLKDLL", "values": [{"measurement": "stoichiometry N", "result": 2}]}
